Source: the supplement of paper PMC5998384

Experiments:
HeLa Kyoto [1] = assay: solubility in G1/S (NP-40 vs SDS abundance) (log2 ratio); higher = more soluble; details: cell cycle stage: G1/S
HeLa Kyoto [2] = assay: solubility change mitosis vs G1/S (difference of NP-40 vs SDS log2 ratios) (log2 ratio difference); higher = more soluble in mitosis
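Throughout, for solubility change mitosis vs G1/S (difference of NP-40 vs SDS log2 ratios): synchronized HeLa Kyoto cells (double thymidine block for G1/S, nocodazole release for mitosis), protein amounts in NP-40 versus SDS lysates quantified by mass spectrometry, three biological replicates.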
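Throughout, for solubility in G1/S (NP-40 vs SDS abundance): HeLa Kyoto cells arrested at G1/S by double thymidine block, proteins quantified by TMT10plex mass spectrometry in mild NP-40 versus SDS extracts, three biological replicates.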

Substance	solubility in G1/S (log2) (HeLa Kyoto [1])	solubility change mitosis (log2) (HeLa Kyoto [2])
MDHTDNELQGTNSSGSLGGLDVRRRIPIKLISKQANKAKPAPRTQRTINRMPAKAPPGDEEGFDYNEEERYDCKGGELFANQRRFPGHLFWDFQINILGEKDDTPVHFCDKCGLPIKIYGRMIPCKHVFCYDCAILHEKKGDKMCPGCSDPVQRIEQCTRGSLFMCSIVQGCKRTYLSQRDLQAHINHRHMRAGKPVTRASLENVHPPIAPPPTEIPERFIMPPDKHHMSHIPPKQHIMMPPPPLQHVPHEHYNQPHEDIRAPPAELSMAPPPPRSVSQETFRISTRKHSNLITVPIQDDSNSGAREPPPPAPAPAHHHPEYQGQPVVSHPHHIMPPQQHYAPPPPPPPPISHPMPHPPQAAGTPHLVYSQAPPPPMTSAPPPITPPPGHIIAQMPPYMNHPPPGPPPPQHGGPPVTAPPPHHYNPNSLPQFTEDQGTLSPPFTQPGGMSPGIWPAPRGPPPPPRLQGPPSQTPLPGPHHPDQTRYRPYYQ [CBLL1]	0.175	-0.286
MASGDLYEVERIVDKRKNKKGKWEYLIRWKGYGSTEDTWEPEHHLLHCEEFIDEFNGLHMSKDKRIKSGKQSSTSKLLRDSRGPSVEKLSHRPSDPGKSKGTSHKRKRINPPLAKPKKGYSGKPSSGGDRATKTVSYRTTPSGLQIMPLKKSQNGMENGDAGSEKDERHFGNGSHQPGLDLNDHVGEQDMGECDVNHATLAENGLGSALTNGGLNLHSPVKRKLEAEKDYVFDKRLRYSVRQNESNCRFRDIVVRKEEGFTHILLSSQTSDNNALTPEIMKEVRRALCNAATDDSKLLLLSAVGSVFCSGLDYSYLIGRLSSDRRKESTRIAEAIRDFVKAFIQFKKPIVVAINGPALGLGASILPLCDIVWASEKAWFQTPYATIRLTPAGCSSYTFPQILGVALANEMLFCGRKLTAQEACSRGLVSQVFWPTTFSQEVMLRVKEMASCSAVVLEESKCLVRSFLKSVLEDVNEKECLMLKQLWSSSKGLDSLFSYLQDKIYEV [CDYL2]	-1.07	0.436
MPSRAEDYEVLYTIGTGSYGRCQKIRRKSDGKILVWKELDYGSMTEAEKQMLVSEVNLLRELKHPNIVRYYDRIIDRTNTTLYIVMEYCEGGDLASVITKGTKERQYLDEEFVLRVMTQLTLALKECHRRSDGGHTVLHRDLKPANVFLDGKQNVKLGDFGLARILNHDTSFAKTFVGTPYYMSPEQMNRMSYNEKSDIWSLGCLLYELCALMPPFTAFSQKELAGKIREGKFRRIPYRYSDELNEIITRMLNLKDYHRPSVEEILENPLIADLVADEQRRNLERRGRQLGEPEKSQDSSPVLSELKLKEIQLQERERALKAREERLEQKEQELCVRERLAEDKLARAENLLKNYSLLKERKFLSLASNPELLNLPSSVIKKKVHFSGESKENIMRSENSESQLTSKSKCKDLKKRLHAAQLRAQALSDIEKNYQLKSRQILGMR [NEK2]	-0.123	0.191
MSVSARSAAAEERSVNSSTMVAQQKNLEGYVGFANLPNQVYRKSVKRGFEFTLMVVGESGLGKSTLINSLFLTDLYSPEYPGPSHRIKKTVQVEQSKVLIKEGGVQLLLTIVDTPGFGDAVDNSNCWQPVIDYIDSKFEDYLNAESRVNRRQMPDNRVQCCLYFIAPSGHGLKPLDIEFMKRLHEKVNIIPLIAKADTLTPEECQQFKKQIMKEIQEHKIKIYEFPETDDEEENKLVKKIKDRLPLAVVGSNTIIEVNGKRVRGRQYPWGVAEVENGEHCDFTILRNMLIRTHMQDLKDVTNNVHYENYRSRKLAAVTYNGVDNNKNKGQLTKSPLAQMEEERREHVAKMKKMEMEMEQVFEMKVKEKVQKLKDSEAELQRRHEQMKKNLEAQHKELEEKRRQFEDEKANWEAQQRILEQQNSSRTLEKNKKKGKIF [SEPT7]	0.245	0.00373
MEGESSRFEIHTPVSDKKKKKCSIHKERPQKHSHEIFRDSSLVNEQSQITRRKKRKKDFQHLISSPLKKSRICDETANATSTLKKRKKRRYSALEVDEEAGVTVVLVDKENINNTPKHFRKDVDVVCVDMSIEQKLPRKPKTDKFQVLAKSHAHKSEALHSKVREKKNKKHQRKAASWESQRARDTLPQSESHQEESWLSVGPGGEITELPASAHKNKSKKKKKKSSNREYETLAMPEGSQAGREAGTDMQESQPTVGLDDETPQLLGPTHKKKSKKKKKKKSNHQEFEALAMPEGSQVGSEVGADMQESRPAVGLHGETAGIPAPAYKNKSKKKKKKSNHQEFEAVAMPESLESAYPEGSQVGSEVGTVEGSTALKGFKESNSTKKKSKKRKLTSVKRARVSGDDFSVPSKNSESTLFDSVEGDGAMMEEGVKSRPRQKKTQACLASKHVQEAPRLEPANEEHNVETAEDSEIRYLSADSGDADDSDADLGSAVKQLQEFIPNIKDRATSTIKRMYRDDLERFKEFKAQGVAIKFGKFSVKENKQLEKNVEDFLALTGIESADKLLYTDRYPEEKSVITNLKRRYSFRLHIGRNIARPWKLIYYRAKKMFDVNNYKGRYSEGDTEKLKMYHSLLGNDWKTIGEMVARSSLSVALKFSQISSQRNRGAWSKSETRKLIKAVEEVILKKMSPQELKEVDSKLQENPESCLSIVREKLYKGISWVEVEAKVQTRNWMQCKSKWTEILTKRMTNGRRIYYGMNALRAKVSLIERLYEINVEDTNEIDWEDLASAIGDVPPSYVQTKFSRLKAVYVPFWQKKTFPEIIDYLYETTLPLLKEKLEKMMEKKGTKIQTPAAPKQVFPFRDIFYYEDDSEGEDIEKESEGQAPCMAHACNSSTLGGQGRWII [TTF1]	-1.02	0.169
MDPIRSFCGKLRSLASTLDCETARLQRALDGEESDFEDYPMRILYDLHSEVQTLKDDVNILLDKARLENQEGIDFIKATKVLMEKNSMDIMKIREYFQKYGYSPRVKKNSVHEQEAINSDPELSNCENFQKTDVKDDLSDPPVASSCISEKSPRSPQLSDFGLERYIVSQVLPNPPQAVNNYKEEPVIVTPPTKQSLVKVLKTPKCALKMDDFECVTPKLEHFGISEYTMCLNEDYTMGLKNARNNKSEEAIDTESRLNDNVFATPSPIIQQLEKSDAEYTNSPLVPTFCTPGLKIPSTKNSIALVSTNYPLSKTNSSSNDLEVEDRTSLVLNSDTCFENLTDPSSPTISSYENLLRTPTPPEVTKIPEDILQLLSKYNSNLATPIAIKAVPPSKRFLKHGQNIRDVSNKEN [SKA3]	0.436	0.0344
MTAVNVALIRDTKWLTLEVCREFQRGTCSRADADCKFAHPPRVCHVENGRVVACFDSLKGRCTRENCKYLHPPPHLKTQLEINGRNNLIQQKTAAAMFAQQMQLMLQNAQMSSLGSFPMTPSIPANPPMAFNPYIPHPGMGLVPAELVPNTPVLIPGNPPLAMPGAVGPKLMRSDKLEVCREFQRGNCTRGENDCRYAHPTDASMIEASDNTVTICMDYIKGRCSREKCKYFHPPAHLQARLKAAHHQMNHSAASAMALQPGTLQLIPKRSALEKPNGATPVFNPTVFHCQQALTNLQLPQPAFIPAGPILCMAPASNIVPMMHGATPTTVSAATTPATSVPFAAPTTGNQLKF [MBNL3]	0.0798	0.156
MAEPGEGLPEEVLALIFRHLSLRDRAAAARVCRAWAAAATCSAVWHDTKISCECELEGMLPPYLSACLDHIHNLRLEFEPSRKPSRRAAIELLMVLAGRAPGLRGLRLECRGEKPLFDAGRDVLEAVHAVCGAASQLRHLDLRRLSFTLDDALVLQAARSCPELHSLFLDNSTLVGSVGPGSVLELLEACPRLRALGLHLASLSHAILEALAAPDRAPFALLALRCACPEDARASPLPNEAWVALRRRHPGLAVELELEPALPAESVTRVLQPAVPVAALRLNLSGDTVGPVRFAAHHYAATLCALEVRAAASAELNAALEELAARCAALREVHCFCVVSHSVLDAFRAHCPRLRTYTLKLTREPHPWRPTLVA [FBXL8]	-0.196	-0.0843
MAGPAPPVADELPGPAARRLYSRMEASCLELALEGERLCKAGDFKTGVAFFEAAVQVGTEDLKTLSAIYSQLGNAYFYLKEHGRALEYHKHDLLLARTIGDRMGEAKASGNLGNTLKVLGRFDEAAVCCQRHLSIAQEQGDKVGEARALYNIGNVYHAKGKQLSWNAANATQDPGHLPPDVRETLCKASEFYERNLSLVKELGDRAAQGRAYGNLGNTHYLLGNFTEATTFHKERLAIAKEFGDKAAERRAYSNLGNAHVFLGRFDVAAEYYKKTLQLSRQLRDQAVEAQACYSLGNTYTLLQDYERAAEYHLRHLLIAQELADRVGEGRACWSLGNAYVSMGRPAQALTFAKKHLQISQEIGDRHGELTARMNVAQLQLVLGRLTSPAASEKPDLAGYEAQGARPKRTQRLSAETWDLLRLPLEREQNGDSHHSGDWRGPSRDSLPLPVRSRKYQEGPDAERRPREGSHSPLDSADVRVHVPRTSIPRAPSSDEECFFDLLTKFQSSRMDDQRCPLDDGQAGAAEATAAPTLEDRIAQPSMTASPQTEEFFDLIASSQSRRLDDQRASVGSLPGLRITHSNAGHLRGHGEPQEPGDDFFNMLIKYQSSRIDDQRCPPPDVLPRGPTMPDEDFFSLIQRVQAKRMDEQRVDLAGGPEQGAGGPPEPQQQCQPGAS [GPSM1]	0.244	-0.0781
MSSLPRRAKVQVQDVVLKDEFSSFSELSSASEEDDKEDSAWEPQKKVPRSRKQPPPKESKPKRMPRVKKNAPQISDGSEVVVVKEELNSSVAIADTALEDRKNKLDTVQTLKTAKTKQKCAAQPHTVRRTKKLKVEEETSKASNLEGESNSSETPSTSTVWGGTCKKEENDDDFTFGQSALKKIKTETYPQGQPVKFPANANSTKEEVEMNWDMVQVLSERTNIEPWVCANIIRLFNDDNTIPFIIRYRKELINNLDADSLREVQQTLEELRAVAKKVHSTIQKIKKEGKMSECLLKAMLNCKTFEELEHVSAPYKTGSKGTKAQRARQLGLEGAARALLEKPGELSLLSYIRPDVKGLSTLQDIEIGVQHILADMIAKDKDTLDFIRNLCQKRHVCIQSSLAKVSSKKVNEKDVDKFLLYQHFSCNIRNIHHHQILAINRGENLKVLTVKVNISDGVKDEFCRWCIQNRWRPRSFARPELMKILYNSLNDSFKRLIYPLLCREFRAKLTSDAEKESVMMFGRNLRQLLLTSPVPGRTLMGVDPGYKHGCKLAIISPTSQILHTDVVYLHCGQGFREAEKIKTLLLNFNCSTVVIGNGTACRETEAYFADLIMKNYFAPLDVVYCIVSEAGASIYSVSPEANKEMPGLDPNLRSAVSIARRVQDPLAELVKIEPKHIGVGMYQHDVSQTLLKATLDSVVEECVSFVGVDINICSEVLLRHIAGLNANRAKNIIEWREKNGPFINREQLKKVKGLGPKSFQQCAGFIRINQDYIRTFCSQQTETSGQIQGVAVTSSADVEVTNEKQGKKKSKTAVNVLLKPNPLDQTCIHPESYDIAMRFLSSIGGTLYEVGKPEMQQKINSFLEKEGMEKIAERLQTTVHTLQVIIDGLSQPESFDFRTDFDKPDFKRSIVCLEDLQIGTVLTGKVENATLFGIFVDIGVGKSGLIPIRNVTEAKLSKTKKRRSLGLGPGERVEVQVLNIDIPRSRITLDLIRVL [SRBD1]	-0.649	0.249
RIMS1	0.0741	0.0888
MATVQEKAAALNLSALHSPAHRPPGFSVAQKPFGATYVWSSIINTLQTQVEVKKRRHRLKRHNDCFVGSEAVDVIFSHLIQNKYFGDVDIPRAKVVRVCQALMDYKVFEAVPTKVFGKDKKPTFEDSSCSLYRFTTIPNQDSQLGKENKLYSPARYADALFKSSDIRSASLEDLWENLSLKPANSPHVNISATLSPQVINEVWQEETIGRLLQLVDLPLLDSLLKQQEAVPKIPQPKRQSTMVNSSNYLDRGILKAYSDSQEDEWLSAAIDCLEYLPDQMVVEISRSFPEQPDRTDLVKELLFDAIGRYYSSREPLLNHLSDVHNGIAELLVNGKTEIALEATQLLLKLLDFQNREEFRRLLYFMAVAANPSEFKLQKESDNRMVVKRIFSKAIVDNKNLSKGKTDLLVLFLMDHQKDVFKIPGTLHKIVSVKLMAIQNGRDPNRDAGYIYCQRIDQRDYSNNTEKTTKDELLNLLKTLDEDSKLSAKEKKKLLGQFYKCHPDIFIEHFGD [DEPDC7]	0.222	-0.0977
